Measurements: paper PMC11840787, “Detection of an Intermediate in the Unfolding Process of the N-Terminal Domain of TDP-43” (ACS Omega, 2025)

Key:
[1] = target: TDP-43 (oligomer, isodesmic) NTD (Homo sapiens) (UniProt Q13148); details: cited from earlier work
[2] = target: TDP-43 NTD (Homo sapiens) (UniProt Q13148); details: cited from earlier work
[3] = target: the molecule itself; experiment: dynamic light scattering; 0.5 mg/mL (45 uM) protein in 4.5 M urea, DH recorded every 5 s, linear fit extrapolated to 0 s (unfolding intermediate)

Question: Which Kd [1] does the source give for TDP-43 NTD (from UniProt Q13148) here?
Answer: 40 µM

Question: And the Kd [2]?
Answer: 2.4 µM

B1: TDP-43 NTD (N-terminal domain of TAR DNA-binding protein 43), noncleaved, 99 residues (domain or fragment, UniProt Q13148 1-77, looked up)
chain: MSEYIRVTEDENDEPIEIPSEDDGTVLLSTVTAQFPGACGLRYRNPVSQCMRGVRLVEGILHAPDAGWGNLVYVVNY
notes: 99 residues in all with the 22-residue N-terminal tag, 11,081.29 Da; A cleaved 78-residue variant was used only for fluorescence kinetics, not for any test of the oligomeric state; also called noncleaved TDP-43 NTD; source: purified
Question: Which “stoichiometry N” value [3] does the source give for B1 here?
Answer: 2
